According to US20250296999A1:

Molecular target: alpha v beta 3 integrin on human podocytes (human) (UniProt P06756)
Sequence (P06756 31-1048, chain 1 of 2): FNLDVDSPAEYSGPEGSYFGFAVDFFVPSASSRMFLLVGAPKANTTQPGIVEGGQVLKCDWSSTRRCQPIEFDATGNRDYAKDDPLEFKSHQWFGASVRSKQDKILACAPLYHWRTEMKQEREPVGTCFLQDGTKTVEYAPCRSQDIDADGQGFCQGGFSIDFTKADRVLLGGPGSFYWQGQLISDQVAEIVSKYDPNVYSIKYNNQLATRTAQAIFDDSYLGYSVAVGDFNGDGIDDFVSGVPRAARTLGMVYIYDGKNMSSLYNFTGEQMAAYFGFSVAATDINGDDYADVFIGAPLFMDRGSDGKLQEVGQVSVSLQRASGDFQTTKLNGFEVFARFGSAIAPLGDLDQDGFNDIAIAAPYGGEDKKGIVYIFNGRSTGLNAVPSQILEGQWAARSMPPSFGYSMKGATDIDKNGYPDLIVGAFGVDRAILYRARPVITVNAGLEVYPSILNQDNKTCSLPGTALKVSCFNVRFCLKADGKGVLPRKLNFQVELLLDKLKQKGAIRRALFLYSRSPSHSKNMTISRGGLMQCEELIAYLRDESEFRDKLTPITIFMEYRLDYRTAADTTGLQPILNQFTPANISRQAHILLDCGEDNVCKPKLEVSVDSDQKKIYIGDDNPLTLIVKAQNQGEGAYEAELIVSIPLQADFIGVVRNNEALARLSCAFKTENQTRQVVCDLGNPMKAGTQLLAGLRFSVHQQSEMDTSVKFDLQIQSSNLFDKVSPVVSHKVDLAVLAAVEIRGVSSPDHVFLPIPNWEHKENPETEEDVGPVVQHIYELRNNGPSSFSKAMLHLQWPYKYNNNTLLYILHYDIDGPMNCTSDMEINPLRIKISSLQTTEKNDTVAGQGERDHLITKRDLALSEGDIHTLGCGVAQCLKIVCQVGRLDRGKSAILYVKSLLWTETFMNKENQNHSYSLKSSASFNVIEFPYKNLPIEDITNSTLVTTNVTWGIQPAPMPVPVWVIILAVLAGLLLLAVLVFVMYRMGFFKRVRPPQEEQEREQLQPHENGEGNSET
Sequence (P05106 27-788, chain 2 of 2, further chain): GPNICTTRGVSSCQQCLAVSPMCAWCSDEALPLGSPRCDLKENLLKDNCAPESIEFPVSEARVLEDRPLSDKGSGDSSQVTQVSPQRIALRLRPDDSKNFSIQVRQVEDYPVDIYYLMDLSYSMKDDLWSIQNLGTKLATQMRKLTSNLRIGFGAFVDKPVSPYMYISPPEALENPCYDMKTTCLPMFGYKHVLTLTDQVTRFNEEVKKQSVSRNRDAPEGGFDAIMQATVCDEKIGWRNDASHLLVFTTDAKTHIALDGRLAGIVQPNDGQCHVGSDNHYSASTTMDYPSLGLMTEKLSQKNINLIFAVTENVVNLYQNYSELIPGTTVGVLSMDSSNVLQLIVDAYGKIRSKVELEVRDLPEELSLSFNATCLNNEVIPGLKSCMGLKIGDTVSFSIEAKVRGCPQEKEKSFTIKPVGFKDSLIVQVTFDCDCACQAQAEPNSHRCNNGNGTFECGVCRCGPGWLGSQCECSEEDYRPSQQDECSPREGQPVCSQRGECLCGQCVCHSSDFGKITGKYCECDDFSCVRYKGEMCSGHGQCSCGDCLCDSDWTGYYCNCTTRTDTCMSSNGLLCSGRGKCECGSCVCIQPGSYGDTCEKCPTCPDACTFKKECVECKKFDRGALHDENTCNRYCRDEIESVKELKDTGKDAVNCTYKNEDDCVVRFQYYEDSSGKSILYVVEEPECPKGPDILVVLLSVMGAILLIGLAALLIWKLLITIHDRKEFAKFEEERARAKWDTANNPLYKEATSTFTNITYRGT

“human D2D3 protein (C-terminal uPAR fragment, D2D3 protein with Linker) (from UniProt Q03405 100-303) (receptor)” showed an EC50 (read off the curve) of 2 ng/mL.
